Laboratory results: patent publication US20070087986A1, “Compositions and methods for enhancing immunity by chemoattractant adjuvants” (priority 2004, published 2007)
Non-standard residues stand in square brackets, D forms with d. No end group written: not given here.

T1: FPRL1 (Homo sapiens, UniProt P25090)
T1 sequence (P25090 1-351): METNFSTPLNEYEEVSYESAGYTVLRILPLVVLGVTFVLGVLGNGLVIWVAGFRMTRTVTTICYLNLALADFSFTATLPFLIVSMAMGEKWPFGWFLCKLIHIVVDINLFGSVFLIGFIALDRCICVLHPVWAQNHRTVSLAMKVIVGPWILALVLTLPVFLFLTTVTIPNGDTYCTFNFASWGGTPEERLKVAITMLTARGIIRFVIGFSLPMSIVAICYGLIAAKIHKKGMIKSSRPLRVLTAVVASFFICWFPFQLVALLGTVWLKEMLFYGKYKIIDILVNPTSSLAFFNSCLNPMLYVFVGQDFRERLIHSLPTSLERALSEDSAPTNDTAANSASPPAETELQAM

B1: mC5a: chemoattractant mC5a (SEQ ID NO: 62) (protein, listed as Homo sapiens)
chain: NLHLLRQKIEEQAAKYKHSVPKKCCYDGARVNFYETCEERVARVTIGPLCIRAFNECCTIANKIRKESPHKPVQLGR

How the values were obtained:
Female BALB/C mice = format: in vivo; settings: for levels of antigen specific IgA antibodies: mucosal samples, day 21, intranasal rPA plus adjuvant; for levels of antigen specific IgG antibodies: serum, day 21, intranasal rPA 10 μg plus adjuvant, vs rPA alone
FPRL1 = biological target: T1, FPRL1; assay: FPRL1 activity of SHAAGtide and truncated and other variants; settings: in words: high, moderate, low
Excerpt: In addition to the agonists and antagonists shown in TABLE 4, SHAAGtide polypeptides were also shown to modulate FPRL1 activity. The term “SHAAGtide” includes SHAAGtide polypeptides (shown in TABLE 5), including isolated or purified SHAAGtide polypeptides, proteins or biologically active fragments separated from or recovered from a component of its natural environment; and polynucleotides shown in TABLE 6, truncated variants and other variants thereof, including naturally occurring allelic variants, derivatives and analogs. SHAAGtide polypeptides are derived from the alternatively spliced variant of CKβ8, namely CKβ8-1. CKβ8-1 is a 116 amino acid long polypeptide that includes the sequence of SHAAGtide polypeptides. […]

Row | Molecule | levels of antigen specific IgA antibodies (Female BALB/C mice) | levels of antigen specific IgG antibodies (Female BALB/C mice) | FPRL1 Activity (FPRL1)
1 | 5′-TCCATGACGTTCCTGATGCT-3′ (chemistry not given here) [CpG, CpG oligonucleotide, ligand for TLR9, reference compound] | did not induce significant levels | did not induce significant levels | 
2 | IGPQMTLSHAAG [CCXP4] |  |  | Low
3 | LWRRKIGPQMTLSH [CCXP11] |  |  | Moderate
4 | MLWRRKIGPQM [CCXP8] |  |  | Moderate
5 | MLWRRKIGPQMT [CCXP5] |  |  | Moderate
6 | MLWRRKIGPQMTLSH [CCXP3] |  |  | High
7 | MLWRRKIGPQMTLSHAAG [CCXP1] | did not induce significant levels | did not induce significant levels | sequence high
8 | MLWRRKIGPQMTLSHAAY [CCXP6] |  |  | high
9 | RRKIGPQMTLSHAAG [CCXP2] |  |  | Low
10 | Trp-Lys-Tyr-Met-Val-D-Met-CONH2 (WKYMV[dM]-NH2) [W-tide, WKYMV-(d-Met)-CONH2, synthetic hexapeptide ligand of FPRL1, reference compound] | did not induce significant levels | did not induce significant levels | 
11 | WRRKIG [CCXP10] |  |  | Low activity
12 | WRRKIGPQM [CCXP9] |  |  | Low activity
13 | WRRKIGPQMTLSHAAG [CCXP7] |  |  | Low activity
14 | mJE: chemokine mJE (SEQ ID NO: 60), used as chemoattractant adjuvant | did not induce significant levels | did not induce significant levels | 
15 | B1 | did not induce significant levels | did not induce significant levels | 
